Data published in patent publication US20220396632A1 (VERSEAU THERAPEUTICS, published 2022).
Non-standard residues stand in square brackets, D forms with d. No end group written: not given here. *: point of attachment. Biotin = O=C1N[C@H]2[C@H](CS[C@H]2CCCCC(=O)*)N1; sY = N[C@@H](Cc1ccc(OS(=O)(=O)O)cc1)C(=O)O

T1: SulfoTyr C4 peptide (not fully specified; Y4, Y7 and Y9 sulfated (SO3); C-terminal biotin)
T1 construct: also called C4 alpha chain peptide; human sulfotyrosinylated C4 peptide
T1 peptide: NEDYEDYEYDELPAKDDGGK

T2: Sulfotyr fibrinogen γ peptide (not fully specified; Y8 and Y12 sulfated (SO3); C-terminal biotin)
T2 construct: also called Fibrinogen gamma peptide; human sulfotyrosinylated fibrinogen peptide
T2 peptide: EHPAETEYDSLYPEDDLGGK

T3: Recombinant human PSGL-1(ECD)-hFc1 (R&D Systems, Cat. 3345-PS) (human, UniProt Q14242 42-305)
T3 construct: Bought; Gln42-Val295 counted on AAC50061; also called PSGL-1-Fc; PSGL-1-hFc1 chimera; not shown: human IgG1 Fc, Pro100-Lys330
T3 sequence: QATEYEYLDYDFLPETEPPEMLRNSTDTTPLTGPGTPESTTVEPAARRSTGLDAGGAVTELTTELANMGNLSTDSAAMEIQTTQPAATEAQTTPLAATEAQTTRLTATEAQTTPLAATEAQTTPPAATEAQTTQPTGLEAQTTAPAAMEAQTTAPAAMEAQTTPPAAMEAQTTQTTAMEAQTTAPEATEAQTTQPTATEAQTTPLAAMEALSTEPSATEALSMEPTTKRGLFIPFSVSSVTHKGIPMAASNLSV

T4: Human fibrinogen protein (ThermoFisher, RP-43142) (human, UniProt P02671 20-629; P02675 31-491; P02679 27-453, limits assumed, natural sulfotyrosines)
T4 construct: mature; Native dimer with 3 pairs of non-identical chains; also called gamma-fibrinogen; γ fibrinogen protein
T4 sequence (looked up) 1: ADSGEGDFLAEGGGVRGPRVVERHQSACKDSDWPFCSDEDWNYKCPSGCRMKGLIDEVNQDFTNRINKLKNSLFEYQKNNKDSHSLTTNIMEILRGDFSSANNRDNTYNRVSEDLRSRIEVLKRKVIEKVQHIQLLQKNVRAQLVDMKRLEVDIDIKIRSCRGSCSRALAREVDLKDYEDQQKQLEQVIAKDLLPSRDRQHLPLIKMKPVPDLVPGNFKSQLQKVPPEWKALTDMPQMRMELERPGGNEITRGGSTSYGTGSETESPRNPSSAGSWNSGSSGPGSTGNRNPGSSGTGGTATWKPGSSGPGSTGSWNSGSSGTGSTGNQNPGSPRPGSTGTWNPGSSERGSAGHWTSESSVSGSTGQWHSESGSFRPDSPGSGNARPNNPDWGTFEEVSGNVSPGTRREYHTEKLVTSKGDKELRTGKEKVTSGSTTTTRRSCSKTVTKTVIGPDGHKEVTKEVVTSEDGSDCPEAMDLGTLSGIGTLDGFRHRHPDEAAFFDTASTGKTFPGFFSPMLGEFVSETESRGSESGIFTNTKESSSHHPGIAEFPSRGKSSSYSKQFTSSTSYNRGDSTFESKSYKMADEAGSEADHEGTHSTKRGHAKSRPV
T4 sequence (looked up) 2: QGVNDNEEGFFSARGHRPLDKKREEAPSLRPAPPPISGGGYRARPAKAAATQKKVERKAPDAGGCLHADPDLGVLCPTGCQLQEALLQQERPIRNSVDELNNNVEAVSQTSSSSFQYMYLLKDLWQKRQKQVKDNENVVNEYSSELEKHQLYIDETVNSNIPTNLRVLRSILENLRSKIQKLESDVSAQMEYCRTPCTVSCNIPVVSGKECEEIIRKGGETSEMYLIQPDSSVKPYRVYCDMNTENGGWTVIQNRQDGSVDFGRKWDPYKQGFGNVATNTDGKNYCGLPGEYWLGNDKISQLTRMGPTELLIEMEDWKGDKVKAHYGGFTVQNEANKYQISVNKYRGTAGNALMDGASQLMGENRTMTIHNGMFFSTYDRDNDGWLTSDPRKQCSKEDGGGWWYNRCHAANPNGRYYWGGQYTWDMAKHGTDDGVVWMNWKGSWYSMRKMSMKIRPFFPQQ
T4 sequence (looked up) 3: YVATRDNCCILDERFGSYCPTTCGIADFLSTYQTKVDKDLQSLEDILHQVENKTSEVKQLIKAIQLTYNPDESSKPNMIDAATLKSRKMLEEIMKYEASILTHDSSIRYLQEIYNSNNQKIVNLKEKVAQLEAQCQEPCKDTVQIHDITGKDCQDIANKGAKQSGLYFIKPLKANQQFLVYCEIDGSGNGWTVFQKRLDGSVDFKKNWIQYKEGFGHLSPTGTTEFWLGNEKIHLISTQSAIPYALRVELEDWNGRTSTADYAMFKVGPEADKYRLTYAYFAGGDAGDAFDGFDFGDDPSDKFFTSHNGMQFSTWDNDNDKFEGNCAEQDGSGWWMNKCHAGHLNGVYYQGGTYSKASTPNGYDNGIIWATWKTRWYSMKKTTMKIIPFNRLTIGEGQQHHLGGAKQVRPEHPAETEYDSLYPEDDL

T5: Sulfotyrosine CCR2b biotin peptide (human)
T5 construct: also called CCR2b peptide
T5 peptide: TTFFD[sY]D[sY]GAPSHGGK(Biotin)

T6: Sulfotyrosine D6 biotin peptide (human)
T6 construct: also called D6 peptide
T6 peptide: ENSSFY[sY][sY]D[sY]LDEVAFGGK(Biotin)

T7: SulfoCCK biotin peptide (human)
T7 construct: also called sulfotyrosine CCK peptide
T7 peptide: SHRISDRD[sY]MGWMDFGGK(Biotin)

B1: 18F02 (antibody, V domains shown)
VH: QVQLQQPGAELVKPGASVKLSCKASGYTFTSYWMHWVKQRPGQGLEWIGMIHPNSGRTNYNEKFKSKATLTVDKSSSTAYMQLSSLTSEDSAVYYCARSDYWGQGTTLTVSS
VL: DIVMTQAAFSNPVTLGTSASISCRSSKSLLHSDGITYLYWFLQRPGQSPQLLIYRMSNLASGVPDRFSGSGSGTDFTLRISRVEAEDVGVYYCAQMLEFPRTFGGGTKLEIK
notes: From mouse immunisation; only variable domains given
B2: 2E12 (antibody, V domains shown)
VH: QVQLQQSGAELARPGASVKLSCKASGYTFTNYGLNWVKQRTGQGLEWIGEIYPRSGNTYYNEKFKGKATLTADKSSSTAYMQLSSLTSEDSAVYFCATEGAYWGQGTLVTVSA
VL: DIVMTQTPLTLSVTIGQPASISCKSSQSLLHGNGKTYLNWLLQRPGQSPKLLIYLVSKLESGIPDRFSGSGSGTDFTLEISRVEAEDLGIYYCLQSTHFPRTFGGGTKLEIK
notes: Mouse hybridoma mAb; only variable domains given
B3: 07E07 (antibody, IgG4, V domains shown)
VH: QVQLQQSGAEVKKPGASVKVSCKASGYTFTSYYMHWVRQAPGQGLEWMGIINTSSGSTKYAQRFQDRVTVTRDTSTTTVYMELNSLRSEDTAVYYCARGGRAYSGSFDNWGQGTLVTVSS
VL: DVVMTQSPLSLPVTLGQPASISCRSSQSLVHRDGNTYFNWFQQRPGQSPRRLIYKVSNRDSGVPDRFSGSGSGTDFTLKISRVEAEDVGVYYCMQATHWPRTFGQGTKVEIK
B4: 03F03 (antibody, V domains shown)
VH: QVQLQESGPGLVKPSETLSLTCTVSGGSISSSSYYWGWIRQPPGKGLEWIGSIYYSGSTYYNPSLKSRVTISVDTSKNQFSLKLSSVTAADTAVYYCARSRPRPWAFDIWGQGTMVTVSS
VL: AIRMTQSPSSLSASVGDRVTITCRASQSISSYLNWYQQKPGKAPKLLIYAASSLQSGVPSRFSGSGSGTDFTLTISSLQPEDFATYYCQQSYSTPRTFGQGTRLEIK
B5: 19I01 (antibody, V domains shown)
VH: EVQLVESGGGLVKPGGSRKLSCAASGFTFSDYGMHWVRQAPEKGLEWVAYISSGSSTIYYADTVKGRFTISRDNAKNTLFLQMTSLRSEDTAMYYCARGVDGYWGQGTTLTVSS
VL: DVVMTQTPLSLPVSLGDQASISCRSSQSLVHSNGNTYLHWYLQKPGQSPKFLIYKVSNRFSGVPDRFSGSGSGTDFTLKISRVEAEDLGVYFCSQTTHVPLTFGAGTKLELK
notes: From mouse immunisation; only variable domains given; also called 19101
B6: 16L15 (antibody, V domains shown)
VH: DVKLVESGGGLVKLGGSLKLSCAASGFTFSSYYMSWVRQTPEKRLEWVATISNGGGSTYYPDSVKDRFTISRDNAKNTLYLQMSSLNSEDTAVYYCAKPLYYSNPWFAYWGQGTLVTVSA
VL: DVLLTQTPLSLPVSLGDQASISCRSSQSIVHSNGNTYLEWYLQKPGQSPKLLIYKVSNRFSGVPDRFSGSGSGTDFTLKISRVEAEDLGVYYCFQGSHVPRTFGGGTKLEIK
notes: as for B1
B7: 5E12 (antibody, V domains shown)
VH: EIQLQQSGAELVRPGASVKLSCTASGFNIKDDYIHWVKQRPEQGLEWIGRIDPANGNTKSAPKFQDKATITADTSSNTAYLHLSSLTSEDTAVYYCSIRFAYWGQGTLVTVSA
VL: DVVMTQTPLSLSVSLGDQASISCRSSQSLVYRNGDTYLHWFLQKPGQSPKLLIYKVSNRFSGVPDRFSGSGSGTDFTLKISRVEAEDLGIYFCSQNTHVPYTFGGGTKLEIK
notes: as for B2
B8: 05E08 (antibody, IgG4, V domains shown)
VH: EVQLVQSGGGVVQPGRSLRLSCAASGFTFSTYAMHWVRQAPGKGLEWVAVISYDGSNKYYADSVKGRFTISRDNSRNTLFLQMNSLRDEDTAVYYCAKRGTMIRGERSLDFWGQGTLVTVSS
VL: AIQMTQSPSFLSASVGDRVTITCRASQGINSWLAWYQQKPGTAPNLLIHAASTLQSGVPSRFSGSRSGTEFTLTISSLQPEDFATYYCQQLQSYPLTFGQGTRLEIK

Tests used:
Assay in all cases: ELISA, 50 nM mAb
SulfoTyr C4 peptide = target: T1, SulfoTyr C4 peptide
Method: (§1) Recombinant PSGL-1-hFc1 chimera protein consisting of PSGL-1's extracellular domain (ECD) served as a positive control. […] Primary antibody was added (25 ul per well) in duplicate at 50 nM in assay buffer (blocking buffer containing 0.05% Tween®20) into test and control (just blocked) wells and the plate incubated for 45 min at 37° C.

[1] = target: T2, Sulfotyr fibrinogen γ peptide
Method: as §1

[2] = target: T3, Recombinant human PSGL-1(ECD)-hFc1 (R&D …)
Method: as §1

[3] = target: T8, Human complement C4 protein (Millipore Sigma, Cat. 204886) (human, UniProt P0C0L4 20-675; P0C0L4 680-1446; P0C0L4 1454-1744, limits assumed, natural sulfotyrosines)
T8 construct: mature
Method: as §1

[4] = target: T4, Human fibrinogen protein (ThermoFisher, …)
Method: as §1

[5] = target: T5, Sulfotyrosine CCR2b biotin peptide
Method: as §1

[6] = target: T6, Sulfotyrosine D6 biotin peptide
Method: as §1

SulfoCCK biotin peptide = target: T7, SulfoCCK biotin peptide
Method: as §1

T8 sequence (P0C0L4 20-675 limits assumed, form in doubt, chain 1 of 3): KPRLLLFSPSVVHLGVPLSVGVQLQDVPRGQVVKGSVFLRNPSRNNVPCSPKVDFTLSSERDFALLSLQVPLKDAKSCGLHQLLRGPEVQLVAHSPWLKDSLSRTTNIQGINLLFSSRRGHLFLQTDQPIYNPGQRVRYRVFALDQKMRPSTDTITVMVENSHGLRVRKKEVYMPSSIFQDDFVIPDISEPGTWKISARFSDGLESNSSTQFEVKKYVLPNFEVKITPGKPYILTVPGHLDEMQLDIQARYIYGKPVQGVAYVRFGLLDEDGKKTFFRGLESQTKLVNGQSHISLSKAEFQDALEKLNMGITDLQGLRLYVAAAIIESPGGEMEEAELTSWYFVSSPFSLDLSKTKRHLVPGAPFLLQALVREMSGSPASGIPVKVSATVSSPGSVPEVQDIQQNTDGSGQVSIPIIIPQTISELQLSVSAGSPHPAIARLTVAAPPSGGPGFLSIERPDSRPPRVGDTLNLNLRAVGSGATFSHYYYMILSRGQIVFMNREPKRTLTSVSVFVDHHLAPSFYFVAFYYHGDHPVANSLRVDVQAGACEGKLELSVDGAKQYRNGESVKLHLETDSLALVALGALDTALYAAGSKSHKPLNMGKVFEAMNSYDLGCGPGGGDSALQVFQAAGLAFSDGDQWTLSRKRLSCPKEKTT
T8 sequence (P0C0L4 680-1446 limits assumed, form in doubt, chain 2 of 3): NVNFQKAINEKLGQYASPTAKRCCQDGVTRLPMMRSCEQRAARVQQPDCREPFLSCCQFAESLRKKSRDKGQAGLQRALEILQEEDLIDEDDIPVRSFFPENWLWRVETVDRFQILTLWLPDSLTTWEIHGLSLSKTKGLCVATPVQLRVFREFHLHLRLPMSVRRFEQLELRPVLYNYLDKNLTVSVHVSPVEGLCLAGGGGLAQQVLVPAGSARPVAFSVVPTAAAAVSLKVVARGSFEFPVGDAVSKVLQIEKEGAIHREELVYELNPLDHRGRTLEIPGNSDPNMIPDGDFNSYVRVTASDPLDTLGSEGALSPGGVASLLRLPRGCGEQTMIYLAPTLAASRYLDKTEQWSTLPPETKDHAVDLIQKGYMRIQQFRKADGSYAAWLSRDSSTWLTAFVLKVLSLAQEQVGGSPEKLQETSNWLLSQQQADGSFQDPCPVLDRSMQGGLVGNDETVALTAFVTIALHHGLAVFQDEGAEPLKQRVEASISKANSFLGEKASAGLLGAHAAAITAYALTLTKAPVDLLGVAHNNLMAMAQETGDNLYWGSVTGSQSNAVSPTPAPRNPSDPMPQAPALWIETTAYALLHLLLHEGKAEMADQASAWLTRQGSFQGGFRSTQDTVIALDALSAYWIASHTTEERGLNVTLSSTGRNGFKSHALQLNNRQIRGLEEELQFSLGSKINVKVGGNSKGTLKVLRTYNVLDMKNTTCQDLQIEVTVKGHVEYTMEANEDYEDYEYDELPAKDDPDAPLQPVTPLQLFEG
T8 sequence (P0C0L4 1454-1744 limits assumed, form in doubt, chain 3 of 3): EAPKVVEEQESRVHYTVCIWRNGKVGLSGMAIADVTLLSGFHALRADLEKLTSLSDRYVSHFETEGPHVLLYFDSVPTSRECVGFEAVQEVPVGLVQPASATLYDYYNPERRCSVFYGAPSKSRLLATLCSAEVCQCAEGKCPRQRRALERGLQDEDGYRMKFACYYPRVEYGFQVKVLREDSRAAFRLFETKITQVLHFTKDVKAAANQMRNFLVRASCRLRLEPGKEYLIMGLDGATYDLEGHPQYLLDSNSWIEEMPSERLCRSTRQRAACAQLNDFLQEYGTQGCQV

Row | Binder | binding result (SulfoTyr C4 peptide) | binding normalized to PSGL-1 [1] | A450nm [2] [A450nm] | binding normalized to PSGL-1 [3] | binding normalized to PSGL-1 [4] | binding result [4] | binding normalized to PSGL-1 [5] | binding normalized to PSGL-1 [6] | binding normalized to PSGL-1 (SulfoTyr C4 peptide) | binding normalized to PSGL-1 (SulfoCCK biotin peptide) | binding result [1] | binding result [5] | binding result [6]
1 | B1 | no binding (tested: 50 nM) | 0.21 | 2.33 | 0.03 | 0.01 | no binding (tested: 50 nM) | 0.03 | 0.09 |  |  |  |  | 
2 | B2 |  | 0.76 | 1.99 | 0.1 | 1.3 |  | 0.03 | 0.06 | 0.03 |  |  |  | 
3 | B3 |  | 1.04 | 2.44 | 1.04 | 0.29 |  | 0.75 |  | 0.97 | 0.75 |  |  | 
4 | B4 |  | 1.33 | 2.12 | 1.35 | 0.23 |  | 1.21 |  | 1.19 | 0.96 |  |  | 
5 | B5 | no binding (tested: 50 nM) | -0.01 | 2.33 | -0.01 | -0.01 | no binding (tested: 50 nM) | 0.02 | 0.02 | -0.01 |  | no binding (tested: 50 nM) | no binding (tested: 50 nM) | no binding (tested: 50 nM)
6 | B6 | no binding (tested: 50 nM) | 0.11 | 2.33 | 0.02 |  | no binding (tested: 50 nM) | 0.03 | 0.06 | 0.01 |  |  |  | 
7 | B7 |  | 0.03 | 2.05 | 0.03 | 0.03 |  | 0.03 | 0.03 | 0.03 |  |  |  | 
8 | B8 |  | 1.05 | 2.46 | 1.04 | 0.44 |  | 0.85 |  | 1 | 0.85 |  |  | 
